# Values of other authors as cited in publication PMC3733499 (Thrombosis and haemostasis, 2013).
# Assays:
# [1] = system: FXa binding to FVa; details: ref [19]; cited from earlier work
# [2] = target: T1, FVa (Homo sapiens, UniProt P07225); details: ref [19]; cited from earlier work
# T1 sequence (P07225 42-676): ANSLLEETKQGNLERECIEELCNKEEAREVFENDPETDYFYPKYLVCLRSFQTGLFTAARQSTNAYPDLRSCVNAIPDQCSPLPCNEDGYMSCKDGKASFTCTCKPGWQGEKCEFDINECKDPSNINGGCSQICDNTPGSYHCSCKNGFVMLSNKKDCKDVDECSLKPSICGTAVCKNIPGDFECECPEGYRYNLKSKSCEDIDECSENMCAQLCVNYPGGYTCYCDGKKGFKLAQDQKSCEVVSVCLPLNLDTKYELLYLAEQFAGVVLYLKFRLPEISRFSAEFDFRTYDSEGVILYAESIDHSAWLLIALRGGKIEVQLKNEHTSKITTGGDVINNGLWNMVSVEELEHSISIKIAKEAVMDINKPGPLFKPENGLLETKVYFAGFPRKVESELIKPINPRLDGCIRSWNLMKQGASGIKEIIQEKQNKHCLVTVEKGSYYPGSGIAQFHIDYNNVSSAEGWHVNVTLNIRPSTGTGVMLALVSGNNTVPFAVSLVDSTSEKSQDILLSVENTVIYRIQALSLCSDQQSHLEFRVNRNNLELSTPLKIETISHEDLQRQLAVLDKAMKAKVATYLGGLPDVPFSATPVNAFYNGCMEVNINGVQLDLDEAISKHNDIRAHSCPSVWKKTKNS
# [3] = target: prothrombinase (FXa/FVa/PL) (Homo sapiens, UniProt P00742+P12259); details: only in the presence of FVa; ref [19]; cited from earlier work
# Sequence of prothrombinase (FXa/FVa/PL) (P12259 29-737 limits assumed): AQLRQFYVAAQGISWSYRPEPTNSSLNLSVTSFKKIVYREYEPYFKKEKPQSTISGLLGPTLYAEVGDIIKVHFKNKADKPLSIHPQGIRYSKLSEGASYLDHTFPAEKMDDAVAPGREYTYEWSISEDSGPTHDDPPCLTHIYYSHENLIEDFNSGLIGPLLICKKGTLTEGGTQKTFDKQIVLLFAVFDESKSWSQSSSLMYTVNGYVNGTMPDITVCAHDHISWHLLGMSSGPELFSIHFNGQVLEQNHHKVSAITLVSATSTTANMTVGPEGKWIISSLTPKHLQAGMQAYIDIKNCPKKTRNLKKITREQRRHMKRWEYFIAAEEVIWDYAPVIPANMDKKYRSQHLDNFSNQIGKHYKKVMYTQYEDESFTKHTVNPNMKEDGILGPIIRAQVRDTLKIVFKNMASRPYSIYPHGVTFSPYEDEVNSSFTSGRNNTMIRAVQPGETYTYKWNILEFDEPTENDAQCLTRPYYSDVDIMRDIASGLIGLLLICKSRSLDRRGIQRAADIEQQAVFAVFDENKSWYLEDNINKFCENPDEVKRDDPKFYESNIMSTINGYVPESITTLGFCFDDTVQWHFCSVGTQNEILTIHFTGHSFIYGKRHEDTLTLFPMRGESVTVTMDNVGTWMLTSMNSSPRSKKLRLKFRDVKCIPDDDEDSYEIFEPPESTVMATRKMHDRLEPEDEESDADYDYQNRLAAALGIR
# Sequence of prothrombinase (FXa/FVa/PL) (P12259 1574-2224 limits assumed): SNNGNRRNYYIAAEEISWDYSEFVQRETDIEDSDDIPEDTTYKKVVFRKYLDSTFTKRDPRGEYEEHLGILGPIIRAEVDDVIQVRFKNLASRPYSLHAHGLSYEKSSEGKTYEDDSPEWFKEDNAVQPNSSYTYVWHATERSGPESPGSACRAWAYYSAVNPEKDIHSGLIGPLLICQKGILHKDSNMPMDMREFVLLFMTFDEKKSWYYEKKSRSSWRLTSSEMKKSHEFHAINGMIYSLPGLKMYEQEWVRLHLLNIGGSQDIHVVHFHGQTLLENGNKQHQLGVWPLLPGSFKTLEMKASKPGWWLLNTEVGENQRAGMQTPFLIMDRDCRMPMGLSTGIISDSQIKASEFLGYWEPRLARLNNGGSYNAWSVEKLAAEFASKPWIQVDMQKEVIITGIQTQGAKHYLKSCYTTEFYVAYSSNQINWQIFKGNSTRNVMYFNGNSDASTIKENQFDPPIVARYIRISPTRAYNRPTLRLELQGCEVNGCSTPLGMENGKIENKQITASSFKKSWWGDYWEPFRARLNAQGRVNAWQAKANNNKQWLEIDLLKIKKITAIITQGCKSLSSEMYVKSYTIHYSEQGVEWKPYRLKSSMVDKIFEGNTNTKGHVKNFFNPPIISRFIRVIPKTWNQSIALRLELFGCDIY
# Sequence of prothrombinase (FXa/FVa/PL) (P00742 41-179 partner limits assumed): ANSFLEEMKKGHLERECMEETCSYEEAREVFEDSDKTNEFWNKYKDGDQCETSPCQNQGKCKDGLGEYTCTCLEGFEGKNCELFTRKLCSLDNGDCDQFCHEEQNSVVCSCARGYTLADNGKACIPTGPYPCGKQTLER
# Sequence of prothrombinase (FXa/FVa/PL) (P00742 235-488 partner limits assumed): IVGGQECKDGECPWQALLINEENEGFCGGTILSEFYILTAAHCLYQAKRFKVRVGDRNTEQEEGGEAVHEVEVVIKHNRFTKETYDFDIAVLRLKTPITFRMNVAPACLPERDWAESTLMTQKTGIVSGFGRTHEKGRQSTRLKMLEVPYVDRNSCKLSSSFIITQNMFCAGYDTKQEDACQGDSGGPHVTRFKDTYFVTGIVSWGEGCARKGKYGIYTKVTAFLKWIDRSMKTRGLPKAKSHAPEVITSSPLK
substance,measurement,setting,value
"621–635 peptide: peptide representing PS residues 621–635 near the C-terminus (RAHSCPSVWKKTKNS; UniProt P07225 662-676, looked up, fragment)",Competition with FXa for a binding site on FVa,[1],appeared to compete with FXa for a binding site on FVa
same,Inhibition of PS binding to FVa,[2],inhibited PS binding to FVa
same,Inhibition of prothrombinase activity,[3],inhibited prothrombinase activity only in the presence of FVa
